# Source: patent publication US8835136B2, “Engineered amine dehydrogenases and methods of use thereof” (Georgia Tech Research Corporation, priority 2012, dated 2014)
# How the values were obtained:
# [1] = Solubility of PFPA substrate; format: physicochemical
# Method: The enzyme tolerates acetone concentrations as high as 20% v/v. The PFPA substrate has a limited solubility of 40 mM in aqueous media, but was increased to 60 mM with the addition of acetone.
# [2] = Native leucine dehydrogenase activity; format: biochemical
# Method: (§1) Activity of purified proteins was measured using a spectrophotometric assay at 340 nm, corresponding to the cofactor nicotinamide adenine dinucleotide (NADH, ε340=6220 M^−1 cm^−1) (Dawson, et al., Clarendon Press, (1989). For reductive amination, reactions took place in 500 mM NH4Cl/NH4OH at pH 9.6, with 200 μM NADH and 20 mM of the ketone substrate, unless otherwise specified. For oxidative deamination, reactions took place in 0.1 M NaHCO3/Na2CO3 buffer at pH 10.0, with 1 mM NAD+ with 10 mM of the amine substrate of interest. All reactions were performed at 25° C. unless otherwise specified. Enzyme was added in 10 μL aliquots in dilute concentrations. Enzyme concentrations varied upon activity levels with the substrate present, but were dilute enough to ensure linear conversion kinetics over the analytical time period (10 min to 30 min). Specific activities were then calculated from the stoichiometric conversion of cofactor as determine by the change in absorbance at 340 nm over time.
# [3] = Oxidative deamination, spectrophotometric assay at 340 nm; format: biochemical; conditions: for Oxidative deamination specific activity: maximum specific activity, 1,3-DMBA
# Method: as §1, with “For oxidative deamination, reactions took place in 0.1 M NaHCO3/Na2CO3 buffer at pH 10.0, with 1 mM NAD+ with 10 mM of the amine substrate of interest.” left out
# [4] = Reductive amination, spectrophotometric assay at 340 nm; format: biochemical; conditions: for Reductive amination specific activity: maximum specific activity, nonlinear fit
# Method: as §1
# [5] = Conversion with GDH cofactor recycle system (LeuDH-AmDH); format: biochemical; conditions: 10 mM MIBK
# Method: Initial rate kinetic measurements are used primarily in the determination of kinetic parameters to avoid second-order effects and product inhibition. The enzyme's ability to reach complete substrate conversion cannot be determined from these initial rate experiments, and was instead evaluated by chiral GC of overnight conversion with a GDH recycle system. The GDH regenerates the expensive NADH by redox reaction of NAD+ and inexpensive glucose (FIG. 1). In 1.5 mL reactions, replicates containing 10 mM MIBK substrate was mixed with an excess of 12 mM glucose, 10 U GDH, and a catalytic amount of NADH (200 μM). Histag purified K67S/E113V/N261L/V290C LeuDH-AmDH (0.13 mg) was added to each reaction and allowed to convert for 18 hours. An additional 0.13 mg of enzyme was then added and allowed to react for 10 hours to achieve the maximum conversion. One mL aliquots of the final reaction media were adjusted to pH>13 by the addition of 100 μL of 10 N NaOH and derivatized in toluene according to the TFAA protocol.
# The product amine was additionally confirmed through ^1H NMR. A 175 mL-scale amination reaction with GDH cofactor recycle was performed similar to previous conversion experiments. […] Following separation, the solvent was removed through rotovap distillation, and the purified product was analyzed by ^1H NMR. […]
# [6] = Oxidative deamination, spectrophotometric assay at 340 nm; format: biochemical
# Method: as §1, with “For oxidative deamination, reactions took place in 0.1 M NaHCO3/Na2CO3 buffer at pH 10.0, with 1 mM NAD+ with 10 mM of the amine substrate of interest.” left out
# The enantioselectivity was initially estimated by measuring the deamination activity toward individual enantiomers of methylbenzylamine (MBA). […] A preference towards (R)-MBA over the corresponding (S)-enantiomer was evident in the discrepancies between the deamination activities of 0.586 U mg^−1 and 0.002 U mg^−1, respectively. These preliminary results were corroborated through direct measurement of the enantioselectivity of the MIBK amination in producing chiral 1,3-DMBA.
# Deamination of L-Phe = format: biochemical; conditions: 0.1 M Glycine pH 10.0, 1 mM NAD+, 20 mM L-Phe, 25° C.
# Method: (§2) The wild-type PheDH from B. badius was characterized to ensure proper expression and folding prior to mutation. […] KM values were determined for the substrates when possible, and corresponded well to those values found in literature (110). Additionally, the K1 value of ammonia was determined to be 5.0 M. The KM of phenylpyruvate could not be determined due to its high absorbance at the analytical wavelength. The wild-type enzyme was determined to be properly folded and active.
# [7] = Kinetic parameters for ammonia (PheDH / PheDH-AmDH); format: biochemical; conditions: amination of phenylpyruvate; read-out: KM, NH3
# Method: as §2
# Kinetic parameters, kcat and KM, were determined for the enzyme and each of the reductive amination substrates; respectively. […] The kcat value for this AmDH enzyme with all three substrates saturated in aqueous NH4Cl/NH4OH buffer at pH 9.6 was 6.85 s^−1 at 25° C. This represents a near 15-fold enhancement above the maximum observed kcat of 0.46 s^−1 of the previously developed LeuDH-AmDH.
# [8] = Amination of phenylpyruvate; format: biochemical; conditions: 500 mM NH4Cl/NH4OH pH 9.6, 200 μM NADH, 5 mM phenylpyruvate, 25° C.
# Method: as §2
# [9] = purified LeuDH library 10/11 hits
molecule,measurement,setting,value
"CC(=O)Cc1ccc(F)cc1 [PFPA, para-fluoro phenyl acetone]",solubility,[1]; aqueous media,40 mM
same,solubility,"[1]; aqueous media with added acetone, aqueous with cosolvent or surfactant or cyclodextrin, with the addition of acetone",60 mM
"WT: LeuDH from Bacillus stearothermophilus, SEQ ID NO:4 (protein, listed as Bacillus stearothermophilus) ELFQYMEKYDYEQVLFCQDKESGLKAIIVIHDTTLGPALGGTRMWMYNSEEEALEDALRLARGMTYKNAAAGLNLGGGKTVIIGDPRKDKNEAMFRAFGRFIQGLNGRYITAEDVGTTVADMDIIYQETDYVTGISPEFGSSGNPSPATAYGVYRGMKAAAKEAFGSDSLEGKVVAVQGVGNVAYHLCRHLHEEGAKLIVTDINKEAVARAVEEFGAKAVDPNDIYGVECDIFAPCALGGIINDQTIPQLKAKVIAGSADNQLKEPRHGDMIHEMGIVYAPDYVINAGGVINVADELYGYNRERAMKKIEQIYDNIEKVFAIAKRDNIPTYVAADRMAEERIETMRKARSQFLQNGHHILSRRRAR",native activity toward 1-Leu,[2],112 U mg^−1
same,Oxidative deamination specific activity,[3],n.m.
same,activity for reductive amination,[4]; MIBK,no measurable activity
same,Reductive amination specific activity,[4]; MIBK,n.m.^[c]
"K67S/E113V/N261L/V290C: LeuDH-AmDH quadruple variant, SEQ ID NO:10, library 11 (protein) ELFQYMEKYDYEQVLFCQDKESGLKAIIVIHDTTLGPALGGTRMWMYNSEEEALEDALRLARGSTYMNAAAGLNLGGGKTVIIGDPRKDKNEAMFRAFGRFIQGLNGRYITAVDVGTTVADMDIIYQETDYVTGISPEFGSSGNPSPATAYGVYRGMKAAAKEAFGSDSLEGKVVAVQGVGNVAYHLCRHLHEEGAKLIVTDINKEAVARAVEEFGAKAVDPNDIYGVECDIFAPCALGGIINDQTIPQLKAKVIAGSADLQLKEPRHGDMIHEMGIVYAPDYVINAGGCINVADELYGYNRERAMKKIEQIYDNIEKVFAIAKRDNIPTYVAADRMAEERIETMRKARSQFLQNGHHILSRRRAR",average substrate conversion,"[5]; 1.5 mL, 18 h + 10 h, chiral GC",92.5%
same,conversion,"[5]; 175 mL-scale, 48 hours",84.7%
same,deamination activity toward (R)-MBA,[6],0.586 U mg^−1
same,deamination activity toward (S)-MBA,[6],0.002 U mg^−1
same,"Specific activity, (R)-MBA",[6]; 20 mM substrate,586.3 mU mg^−1 protein
same,"Specific activity, (S)-MBA",[6]; 20 mM substrate,1.6 mU mg^−1 protein
same,"Specific activity, cyclohexylamine",[3]; 20 mM substrate,56.0 mU mg^−1 protein
same,"Specific activity, (R/S)-MBA","[3]; 40 mM racemic, 20 mM of each enantiomer",784.6 mU mg^−1 protein
same,Km,"[3]; 1,3-DMBA substrate, read-out: KM (oxidative deamination)",57.5 mM
same,Oxidative deamination specific activity,[3],2.64 U mg^−1 protein
same,"Deamination of 1,3-DMBA Vmax",[3]; [9],2.350 ± 0.26
same,Km,"[3]; purified LeuDH library 10/11 hits, read-out: Deamination of 1,3-DMBA KM",41.9 ± 9.7 mM
same,"Specific activity, acetophenone",[4]; 20 mM substrate,58.8 mU mg^−1 protein
same,"Specific activity, cyclohexanone",[4]; 20 mM substrate,123.4 mU mg^−1 protein
same,"Specific activity, ethyl pyruvate",[4]; 20 mM substrate,13.2 mU mg^−1 protein
same,"Specific activity, ethyl-3-oxohexanoate",[4]; 20 mM substrate,14.0 mU mg^−1 protein
same,"Specific activity, methyl acetoacetate",[4]; 20 mM substrate,4.5 mU mg^−1 protein
same,kcat,[4]; MIBK amination,0.46 s⁻¹
same,Km,"[4]; MIBK substrate, read-out: KM (reductive amination)",15.1 mM
same,amination activity,"[4]; MIBK, non-linear Michaelis-Menten fit",0.69 U mg^−1
same,Reductive amination specific activity,[4]; MIBK,0.690 U mg^−1 protein
same,Amination of MIBK Vmax,[4]; [9],0.331 ± 0.07
same,Km,"[4]; purified LeuDH library 10/11 hits, read-out: Amination of MIBK KM",18.7 ± 11.7 mM
"Wild Type: PheDH from Bacillus badius, SEQ ID NO:1 (protein, listed as Bacillus badius) SLVEKTSIIKDFTLFEKMSEHEQVVFCNDPATGLRAIIAIHDTTLGPALGGCRMQPYNSVEEALEDALRLSKGMTYKCAASDVDFGGGKAVIIGDPQKDKSPELFRAFGQFVDSLGGRFYTGTDMGTNMEDFIHAMKETNCIVGVPEAYGGGGDSSIPTAMGVLYGIKATNKMLFGKDDLGGVTYAIQGLGKVGYKVAEGLLEEGAHLFVTDINEQTLEAIQEKAKTTSGSVTVVASDEIYSQEADVFVPCAFGGVVNDETMKQFKVKAIAGSANNQLLTEDHGRHLADKGILYAPDYIVNSGGLIQVADELYEVNKERVLAKTKHIYDAILEVYQQAELDQITTMEAANRMCEQRMAARGRRNSFFTSSVKPKWDIRN",activity in the deamination of L-Phe,Deamination of L-Phe,39.5 U mg^−1
same,"Deamination Activity 40 mM 1,3-DMBA, kcat","[3]; 0.1M Glycine pH 10.0, 1 mM NAD+, 25° C.",—No Activity—
same,"Amination Activity 40 mM MIBK, kcat","[4]; 500 mM NH4Cl/NH4OH pH 9.6, 200 μM NADH, 25° C.",—No Activity—
same,Km,[7],64.5 mM
same,activity in the amination of phenylpyruvate,[8],greater than 257 U mg^−1
